Assay results as given in patent publication US20120275997A1 (published 2012).
Numbering of substitutions follows the chain as printed. One block for each binder: values may come before it.

What was measured:
[1] = target: human CD151 protein (human) (UniProt P48509); experiment: flow cytometry on BxPC3 cells, antibody at 10 ug/ml
[2] = target: human CD151 protein (human) (UniProt P48509); experiment: flow cytometry on PC3 cells, undiluted hybridoma supernatant
[3] = target: human CD151 protein (human) (UniProt P48509); experiment: flow cytometry on DU145 cells, antibody at 10 ug/ml
[4] = target: human CD151 protein (human) (UniProt P48509); experiment: flow cytometry on A549 cells, antibody at 10 ug/ml
[5] = target: human CD151 protein (human) (UniProt P48509); experiment: flow cytometry on NIH3T3-CD151 cells, antibody at 10 ug/ml
[6] = target: human CD151 protein (human) (UniProt P48509); experiment: flow cytometry on PC3 cells
[7] = target: T1, recombinant large extracellular loop EC2 of human CD151 (human, UniProt P48509 113-221, limits assumed); experiment: competition ELISA on recombinant EC2; competitor murine 214B2 at 80 ng/ml, detected with anti-mouse IgG
T1 construct: also called recombinant EC2 loop; extracellular loop 2
T1 sequence (looked up): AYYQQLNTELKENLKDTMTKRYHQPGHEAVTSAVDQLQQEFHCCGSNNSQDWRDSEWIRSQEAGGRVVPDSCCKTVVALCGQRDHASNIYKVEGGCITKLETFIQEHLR
Experimental: (§1) Cross-competition experiments were further performed by ELISA to evaluate the ability of the chimeric antibodies c214B2[IgG1] and c203B6[IgG1] to inhibit the binding of their corresponding murine forms to the recombinant EC2 loop. Briefly, 96-well ELISA plates were coated with recombinant EC2 at 5 μg/ml in PBS overnight at 4° C. Murine Mabs 203B6 and 214B2 at 80 ng/ml were further incubated in the absence or in the presence of increasing concentrations of their corresponding chimeric antibody forms, ranging from 0.01 to 20 μg/ml, for 1 h at 37° C. For control experiments, no murine antibody was added. Horseradish peroxidase-conjugated polyclonal goat anti-mouse IgG was added at a 1/5000 dilution in PBS and incubated for 1 h at 37° C. After incubation with the peroxidase substrate TMB for 10 min at room temperature, the reaction was stopped with 1 M sulfuric acid and the optical density at 450 nm was measured. […] IC₅₀ values, calculated by using the GraphPad Prism software, were 0.69 μg/ml and 0.71 μg/ml for c214B2[IgG1] and c203B6[IgG1], respectively.

[8] = target: T1, recombinant large extracellular loop …; experiment: competition ELISA on recombinant EC2; competitor murine 203B6 at 80 ng/ml, detected with anti-mouse IgG
Experimental: as §1

[9] = target: T1, recombinant large extracellular loop …; experiment: cross-blocking ELISA on recombinant EC2; competitor murine 214B2
Experimental: FIG. 18 illustrates the Cross blocking of the murine antibody […] by the chimeric […] and different variants of the humanized 214B2. The activity of the humanized variants of 214B2 (hz214B2) to cross block the parental antibody m214B2 was evaluated by ELISA using the recombinant extracellular loop 2 (EC2) of human antigen CD151. The activity of the humanized variants was compared to the chimeric 214B2.
The affinity of the humanized variants to the epitope of the parental antibody was evaluated by cross blocking the parental antibody with the humanized antibody. The parental antibody concentration was kept constant and the humanized antibody serial diluted. The chimeric antibody served as a positive control and as a reference in these experiments. The humanized antibodies were evaluated by there affinity in ELISA and flow cytometry assays. In the ELISA based assay the second extracellular domain (EC2) of the human CD151 was expressed recombinantly and purified by the six histidine tag. Purified EC2 protein was used to coated ELISA plates and binding of humanized anti-CD151 antibodies was measured indirectly by detecting the murine parental antibody with HRP conjugated anti-mouse IgG antibodies. Binding to CD151 of humanized anti-CD151 antibodies was evaluated by flow cytometry using the human prostate cancer cell line PC3. The affinity was determined by cross blocking the biotinylated parental murine anti-CD151 antibody. The biotinylated antibody was detected using fluorescein conjugated streptavidin. Affinity constant (Kd) was measured by BIACore analysis.

Chain of human CD151 protein (human) (P48509 whole entry): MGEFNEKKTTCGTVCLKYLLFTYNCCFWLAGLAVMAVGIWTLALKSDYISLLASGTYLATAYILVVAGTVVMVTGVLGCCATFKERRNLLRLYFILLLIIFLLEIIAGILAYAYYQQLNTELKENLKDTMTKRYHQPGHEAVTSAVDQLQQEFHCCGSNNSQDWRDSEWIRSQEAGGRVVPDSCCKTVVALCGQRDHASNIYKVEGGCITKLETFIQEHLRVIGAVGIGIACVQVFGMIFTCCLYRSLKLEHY

MFI [1]: 849
MFI [2]: 1000
MFI [3]: 1330
MFI [4]: 820
MFI [5]: 748
B1: murine antibody 214B2 (antibody, mouse IgG1, V domains shown)
VH: QVQLQQPGSVLVRPGASVKLSCKASGYTFTSSSMHWAKQRPGQGLEWIGEIHPNSGNTNNNEKFKGKATLTVDTSSSTAYVDLSSLSSEDSAVYYCARARSFYYAMDCWGQGTSVTVSS
VL: NIVMTQSPKSMSMSVGERVTLSCKASENVGTYVSWYQQKPEQSPKLLIYGASNRYTGVPDRFTGSGSATDFTLTISSVQAEDLADYHCGQTYSFPYTFGGGTKLEIK

antibody concentration at which the binding plateau was reached [6]: 2.5 µg/mL
IC50 [7]: 0.69 µg/mL
B2: chimeric antibody c214B2[IgG1] (antibody, V domains shown)
VH: B1 VH
VL: NIVMTQSPKSMSMSVGERVTLSCKASENVGTYVSWYQQKPEQSPKLLIYGASNRYTGVPDRFTGSGSATDFTLTISSVQAEDLADYHCGQTYSFPYTFGGGTKLEIKR
notes: Mouse variable domains fused to human IgG1 / Ckappa constant domains; also called chimeric 214B2; chimeric 241B2

MFI [1]: 768
MFI [2]: 975
MFI [3]: 860
MFI [4]: 675
MFI [5]: 540
B3: murine antibody 203B6 (antibody, mouse IgG1, V domains shown)
VH: EVKLVESGGGLVQPGGSLKLSCAASGFTFSTYTMSWVRQTPEKRLEWVAYISSGGGTTYYPDTVKGRFTISRDNARNTLYLQMNSLKSEDTAMYYCATPRIGTGFAYWGQGTLVTVSA
VL: DIVLSQSPASLALSLGQRATISCRASASVEYYGTSLMHWYQQKPGQPPKLLIYEASNVESGVPARFSGSGSGTDFSLNIHPVEEDDLAIYFCQQSRKAPYTFGGGTKLEIK

antibody concentration at which the binding plateau was reached [6]: 5 µg/mL
IC50 [8]: 0.71 µg/mL
B4: chimeric antibody c203B6[IgG1] (antibody, V domains shown)
VH: B3 VH
VL: DIVLSQSPASLALSLGQRATISCRASASVEYYGTSLMHWYQQKPGQPPKLLIYEASNVESGVPARFSGSGSGTDFSLNIHPVEEDDLAIYFCQQSRKAPYTFGGGTKLEIKR
notes: Mouse variable domains fused to human IgG1 / Ckappa constant domains

binding result [9]: binds
B5: humanized antibody Hz214B2VLVar2VHVar3 (G1) (antibody, human IgG1, kappa, V domains shown)
VH: QVQLVQSGAEVKKPGASVKLSCKASGYTFTSSSMHWVRQAPGQGLEWMGEIHPNSGNTNNAQKFQGRATLTVDTSISTAYVELSRLRSDDTAVYYCARARSFYYAMDCWGQGTSVTVSS
VL: NIQMTQSPSSLSASVGDRVTITCRASENVGTYVNWYQQKPGKAPKLLIYGASNLQSGVPSRFSGSGSATDFTLTISSLQPEDFATYYCGQTYSFPYTFGQGTKLEIKR
notes: also called VH Var3 with VL Var2

binding result [9]: binds
B6: humanized 214B2, VL Var1 with VH Var3 (IgG1) (antibody, V domains shown)
VH: B5 VH
VL: B5 VL with N1D, V33L, N53S, A68G
notes: also called Hz214B2VLVar1 with Hz214B2VHVar3 (G1)

binding result [9]: binds
B7: humanized antibody Hz214B2VLVar4VHVar4 (G1) (antibody, human IgG1, kappa, V domains shown)
VH: B5 VH with A61N, Q62E, Q65K
VL: B5 VL with Q3V, R24K, N34S, L54R, Q55Y, S56T, Y87H
notes: also called Hz214B2VHVar4VLVar4; Hz214B2VHVar4VLVar4 (G1)

binding result [9]: binds
B8: humanized 214B2, VL Var1 with VH Var2 (IgG1) (antibody, V domains shown)
VH: B5 VH with L20V, A68V, V81M
VL: B5 VL with N1D, V33L, N53S, A68G
notes: also called Hz214B2VLVar1 with Hz214B2VHVar2 (G1)

binding result [9]: binds
B9: humanized antibody Hz214B2VLVar2VHVar2 (G1) (antibody, human IgG1, kappa, V domains shown)
VH: B5 VH with L20V, A68V, V81M
VL: B5 VL
notes: also called VH Var2 with VL Var2

binding result [9]: binds
B10: humanized antibody Hz214B2VLVar3VHVar2 (G1) (antibody, human IgG1, kappa, V domains shown)
VH: B5 VH with L20V, A68V, V81M
VL: B5 VL with Q3V, R24K, N34S, Q55Y, Y87H
notes: also called VH Var2 with VL Var3

binding result [9]: binds
B11: humanized antibody Hz214B2VLVar3VHVar3 (G1) (antibody, human IgG1, kappa, V domains shown)
VH: B5 VH
VL: B5 VL with Q3V, R24K, N34S, Q55Y, Y87H
notes: also called Hz214B2VHVar3VLVar3; Hz214B2VHVar3VLVar3 (G1)
